The test system of data set [1] is 2G12 (anti-HIV-1 gp120 carbohydrate-binding monoclonal antibody). Nature of the data set: filter.
For data set [2] the test system is unchanged. Nature of the data set: BLI. The following applies: N are Man9-derivatized dU (3 sites); 5' A5 spacer [26,33,39]; 1:1 global fit; kon 2.04e4 /M/s, koff 2.53e-4 /s.

One may read the pKd as the Kd on a negative log10 scale, so that one unit is a factor of ten. Lower therefore signals a large Kd.

pKd: −log10 of the molar value.

Turning to “CGGGTACGGGAGACCCATGGTGCAACCTACGGATAAAGCACACAGGAGACGACAAG [Clone 7 glycoDNA]”, the pKd in data set [1] (all T in random region are EdU-Man9, moderate binding, Mg2+ buffer) was 7.92. On to “CGGGTACGGGAGACCCACAGTGCAACCTACGGATAAAGCACACAGGAGACGACAAG [Clone 2 glycoDNA]”, for which, in data set [1] (all T in random region are EdU-Man9 (3 sites), 20 mM Tris pH 7.5, 150 mM NaCl, 4 mM MgSO4, BSA, binding at 37 C also shown in FIG. 11), the pKd was 8.77. In data set [2], “AAAAACGGGTACGGGAGACCCACGGTGCAACCTACGGATAAAGCACACAGGAGACGACAAG [Clone 1 biotinylated glycoDNA (BLI)]” showed a pKd of 7.91.

The record behind these values is patent publication US11268099.
